The numbers were not newly measured in article PMC9776569, which cites them from elsewhere.

Data set [1] concerns the target Asp143 (UniProt position 225, NIWSEDNADSG).
Data set [2] deals with Asp146 (UniProt position 228, SEDNADSGQ--).
In data set [3] the target is Asp40 (UniProt position 122, RLLLVDTPETK).
For data set [4], the target named is Asp95 (UniProt position 177, AYIYADGKMVN).
Data set [5] concerns the target Glu10 (UniProt position 92, KKLHKEPATLI).
For data set [6], the target named is Glu101 (UniProt position 183, GKMVNEALVRQ).
In data set [7] the target is Glu122 (UniProt position 204, PNNTHEQHLRK).
Data set [8] deals with Glu129 (UniProt position 211, HLRKSEAQAKK).
Data set [9] deals with Glu135 (UniProt position 217, AQAKKEKLNIW).
Data set [10] has as its target Glu142 (UniProt position 224, LNIWSEDNADS).
Data set [11] addresses Glu43 (UniProt position 125, LVDTPETKHPK).
The target in data set [12] is Glu52 (UniProt position 134, PKKGVEKYGPE).
Data set [13] concerns the target Glu57 (UniProt position 139, EKYGPEASAFT).
Data set [14] has as its target Glu67 (UniProt position 149, TKKMVENAKKI).
Data set [15] deals with Glu73 (UniProt position 155, NAKKIEVEFDK).
Data set [16] has as its target Glu75 (UniProt position 157, KKIEVEFDKGQ).
The target in data set [17] is His121 (UniProt position 203, KPNNTHEQHLR).
Data set [18] addresses His124 (UniProt position 206, NTHEQHLRKSE).
Data set [19] addresses His46 (UniProt position 128, TPETKHPKKGV).
For data set [20], the target named is His8 (UniProt position 90, STKKLHKEPAT).
Data set [21] addresses Asp101 (UniProt position 119, KKIVSDGNGMN).
The target in data set [22] is Asp119 (UniProt position 137, RCKGTDVQAWI).
In data set [23] the target is Asp18 (UniProt position 36, KRHGLDNYRGY).
The target in data set [24] is Asp48 (UniProt position 66, TNRNTDGSTDY).
Data set [25] addresses Asp52 (UniProt position 70, TDGSTDYGILQ).
Data set [26] has as its target Asp66 (UniProt position 84, RWWCNDGRTPG).
In data set [27] the target is Asp87 (UniProt position 105, ALLSSDITASV).
Data set [28] has as its target Cterm129 (UniProt position 147, IRGCRL-----).
Data set [29] addresses Glu35 (UniProt position 53, CAAKFESNFNT).
Data set [30] concerns the target Glu7 (UniProt position 25, VFGRCELAAAM).
The target of data set [31] is His15 (UniProt position 33, AAMKRHGLDNY).
The target in data set [32] is Lys1 (UniProt position 19, LAALGKVFGRC).
For data set [33], the target named is Lys116 (UniProt position 134, WRNRCKGTDVQ).
The target of data set [34] is Lys13 (UniProt position 31, LAAAMKRHGLD).
In data set [35] the target is Lys33 (UniProt position 51, WVCAAKFESNF).
Data set [36] addresses Lys96 (UniProt position 114, SVNCAKKIVSD).
Data set [37] deals with Lys97 (UniProt position 115, VNCAKKIVSDG).
In data set [38] the target is Nterm1 (UniProt position 19, LAALGKVFGRC).
Data set [39] has as its target Tyr20 (UniProt position 38, HGLDNYRGYSL).
Data set [40] deals with Tyr23 (UniProt position 41, DNYRGYSLGNW).
For data set [41], the target named is Tyr53 (UniProt position 71, DGSTDYGILQI).
In data set [42] the target is Asp20 (UniProt position 21, DVLKADGAILV). As to conditions: redox state not stated in this article.
For data set [43], the target named is Asp26 (UniProt position 27, GAILVDFWAEW). As to conditions: redox state not stated in this article.
Data set [44] concerns the target Cys32 (UniProt position 33, FWAEWCGPCKM). The conditions noted are these: reduced (free thiols at Cys-32 and Cys-35).
In data set [45] the target is Cys35 (UniProt position 36, EWCGPCKMIAP). As to conditions: reduced (free thiols at Cys-32 and Cys-35).
The target in data set [46] is His6 (UniProt position 7, SDKIIHLTDDS). As to conditions: redox state not stated in this article.
Data set [47] addresses Nterm1 (UniProt position 2, ----MSDKIIH). The conditions noted are these: redox state not stated in this article.
For data set [48], the target named is Asp16 (UniProt position 16, FQEALDAAGDK). As to conditions: redox state not stated in this article.
Data set [49] concerns the target Asp20 (UniProt position 20, LDAAGDKLVVV). As to conditions: redox state not stated in this article.
The target of data set [50] is Asp26 (UniProt position 26, KLVVVDFSATW). As to conditions: redox state not stated in this article.
For data set [51], the target named is Asp58 (UniProt position 58, IFLEVDVDDCQ). As to conditions: redox state not stated in this article.
Data set [52] addresses Asp60 (UniProt position 60, LEVDVDDCQDV). The conditions noted are these: redox state not stated in this article.
The target in data set [53] is Asp61 (UniProt position 61, EVDVDDCQDVA). As to conditions: redox state not stated in this article.
Data set [54] deals with Asp64 (UniProt position 64, VDDCQDVASEC). As to conditions: redox state not stated in this article.
The target in data set [55] is Glu103 (UniProt position 103, EATINELV---). As to conditions: redox state not stated in this article.
Data set [56] concerns the target Glu13 (UniProt position 13, KTAFQEALDAA). As to conditions: redox state not stated in this article.
The target of data set [57] is Glu47 (UniProt position 47, FHSLSEKYSNV). The conditions noted are these: redox state not stated in this article.
Data set [58] has as its target Glu56 (UniProt position 56, NVIFLEVDVDD). The conditions noted are these: redox state not stated in this article.
The target of data set [59] is Glu6 (UniProt position 6, MVKQIESKTAF). The conditions noted are these: redox state not stated in this article.
Data set [60] addresses Glu68 (UniProt position 68, QDVASECEVKC). The conditions noted are these: redox state not stated in this article.
Data set [61] concerns the target Glu70 (UniProt position 70, VASECEVKCMP). As to conditions: redox state not stated in this article.
In data set [62] the target is Glu88 (UniProt position 88, GQKVGEFSGAN). The conditions noted are these: redox state not stated in this article.
Data set [63] deals with Glu95 (UniProt position 95, SGANKEKLEAT). As to conditions: redox state not stated in this article.
Data set [64] has as its target Glu98 (UniProt position 98, NKEKLEATINE). As to conditions: redox state not stated in this article.

As usually defined, the pKa is the negative logarithm of the acid dissociation constant. Take “Staphylococcal nuclease (SNase) (Staphylococcus aureus)”: the pKa in data set [1] was 3.80; in [2] it was 3.86; in data set [3], 3.87; in [4] it was 2.16; in [5], 2.82; in data set [6], 3.81. For the same substance, the pKa in data set [7] was 3.89; in data set [8], 3.75; in data set [9], 3.76; in data set [10], 4.49; in data set [11], 4.32; in data set [12] it was 3.93. The pKa is 3.49 in data set [13]; 3.76 in data set [14]; 3.31 in [15]; 3.26 in data set [16]; 5.30 in data set [17]; 5.73 in data set [18]. For the same substance, the pKa is on record as 5.86 in [19] and 6.52 in data set [20].

As for “Hen egg-white lysozyme (HEWL) (Gallus gallus)”, the pKa in data set [21] is 4.09; in data set [22] it was 3.20; in data set [23] it was 2.66; in data set [24], 1.60; in data set [25], 3.68; in data set [26], 0.90. In addition, the pKa in data set [27] is given as 2.07; in data set [28] it was 2.75; in data set [29], 6.20; in data set [30], 2.85; in [31] it was 5.36; in [32], 10.90. Further, the pKa in data set [33] is recorded as 10.40; in data set [34], 10.60; in data set [35] it was 10.60; in [36], 10.80; in [37] it was 10.30; in data set [38], 7.90. Further, the pKa in data set [39] was 10.30; in data set [40], 9.80; in [41] it was 12.10.

Consider “Escherichia coli thioredoxin 1 (EcTrx) (Escherichia coli)”, for which the pKa in data set [42] is recorded as 3.80; in [43], 7.50; in data set [44], 7.10; in data set [45] it was 9.90; in data set [46], 6.20; in data set [47] it was 7.40.

As to Human thioredoxin (hTrx) (Homo sapiens), the pKa in data set [48] is 4.00; in data set [49] it was 3.80; in data set [50], 9.90; in data set [51] it was 2.80; in [52] it was 4.20; in data set [53], 5.30. For the same substance, the pKa in [54] is 3.20; in data set [55] it was 4.40; in data set [56], 4.40; in [57], 4.10; in data set [58] it was 3.10; in [59] it was 4.80. Moreover, the pKa in data set [60] is given as 4.90; in data set [61], 4.60; in data set [62], 3.70; in data set [63], 4.10; in data set [64], 3.90.
